Reference: patent US20200048342A1 (INSERM, published 2020)

Tests used:
[1] = target: T1, Biotinylated NOTCH3 657-848 (human, UniProt Q9UM47 657-848, biotinylated (site not stated)); experiment: Octet RED (BLI), biotinylated NOTCH3 657-848 on streptavidin tips, 5E1 at 333 nM to 3.3 nM; human NOTCH3 (657-848), Octet
T1 construct: also called human NOTCH3 (Octet analysis)
T1 sequence: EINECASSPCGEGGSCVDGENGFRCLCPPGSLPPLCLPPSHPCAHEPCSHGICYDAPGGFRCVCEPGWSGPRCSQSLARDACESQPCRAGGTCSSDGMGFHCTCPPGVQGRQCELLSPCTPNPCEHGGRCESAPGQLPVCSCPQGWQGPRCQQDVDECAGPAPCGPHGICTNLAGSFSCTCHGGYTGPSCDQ
Procedure: (§1) FIGS. 1A-1B show 5E1 binding to human NOTCH3 using OCTET analysis. (A) Kinetic analysis was performed using the Octet RED technology from ForteBio according to the manufactures instruction. Biotinylated NOTCH3 657-848 was immobilized on streptavidin tips at a level of approximately 3 RU each. (B) Subsequent association and dissociation of 5E1 antibody was analyzed at concentrations in the range from 333 nM to 3.3 nM. Data analysis was subsequently done using the ForteBio Data Analysis 7.0 software (Example 3).
as §1, with “Kinetic” for “FIGS. 1A-1B show 5E1 binding to human NOTCH3 using OCTET analysis. (A) Kinetic”, “each.” for “each. (B)”, “3,3” for “3.3”, “(FIG. 1).” for “(Example 3).”

[2] = target: vascular Notch3ECD deposits of TgPAC-Notch3R169C mice; experiment: in vivo target engagement, co-immunolabelling with Alexa 488-conjugated 5E1 for total Notch3ECD deposits, 2 months old TgPAC-Notch3R169C mice

Kd [1]: 55 nM
percentage of target engagement [2]: 100%
B1: 5E1 monoclonal antibody (isotype IgG1) (antibody, V domains shown)
VH: EIQLQQSGTVLARPGASVKMSCKASGYTFTSYWMHWVKQRPGQGLEWIGAIYPGNGDTSYNRKFNGKAKLTAVTSTSTAYMEFSSLTNEDSAVYFCTRDYGSSYDYVMDYWGQGTSVTVSS
VL: DIQMTQSPSSLSASLGERVSLTCRASQDIGSSLNWLQQEPDGTIKRLIYATSSLDSGVPKRFSGSRSGSDYSLTISRLESEDFVDYYCLQYISSPLTFGAGTKLELK
notes: Murine monoclonal IgG1 from a hybridoma; also called 5E1 antibody; 5E1 anti-Notch3
